Experimental findings from patent US20230070786A1 (SPIBER TECHNOLOGIES, published 2023) are described below.

The series concerns the molecule itself. Description: size exclusion chromatography, self-association. The protocol:
The inventors designed a minispidroin composed of NT from E. australis MaSp1 and CT from A. ventricosus MiSp bracketing a short repetitive region from E. australis. The chimeric NT2RepCT protein was produced at unprecedented high levels in shake flask E. coli cultures and the yield after purification was around 125 mg protein/L cell culture. Nearly all protein was soluble after expression and lysis, and bound efficiently to the Ni-NTA column (FIG. 2A). The eluate contained >95% pure NT2RepCT and the size of the protein on the SDS PAGE gel corresponded well to the expected molecular mass (33 kDa) (FIG. 2A). Size-exclusion chromatography indicated a mass of 100 kDa (FIG. 6), in good agreement with a dimer (due to the constitutive dimeric nature of CT) and a non-globular structure of the repetitive part.
A Superdex 200 HR column (Amersham Biosciences) was used to run 200 μl of purifed protein sample in TBS running buffer (20 mM Iris, 150 mM NaCl and 1 mM EDTA, pH 8.0). The flow rate used was 0.5 ml/min. Molecular mass standards Ribonuclease A (13.7 kDa), Carbonic anhydrase (29 kDa), Ovalbumin (43 kDa), Conalbumin (75 kDa), Aldolase (158 kDa) and Ferritin (440 kDa) were used for calibration.
In general terms: Size exclusion chromatography separates by hydrodynamic size, large species first.

B1: NT2RepCT (other)
chain: MGHHHHHHMSHTTPWTNPGLAENFMNSFMQGLSSMPGFTASQLDDMSTIAQSMVQSIQSLAAQGRTSPNKLQALNMAFASSMAEIAASEEGGGSLSTKTSSIASAMSNAFLQTTGVVNQPFINEITQLVSMFAQAGMNDVSAGNSGRGQGGYGQGSGGNAAAAAAAAAAAAAAAGQGGQGGYGRQSQGAGSAAAAAAAAAAAAAAGSGQGGYGGQGQGGYGQSGNSVTSGGYGYGTSAAAGAGVAAGSYAGAVNRLSSAEAASRVSSNIAAIASGGASALPSVISNIYSGVVASGVSSNEALIQALLELLSALVHVLSSASIGNVSSVGVDSTLNVVQDSVGQYVG
notes: Engineered chimeric spidroin made in E. coli and tested with its His tag; also called chimeric minispidroin NT2RepCT; chimeric NT2RepCT protein
Turning to B1, the binding result is “binds”.
